Assay results published in US20250057968A1, “ANTI-DLL3 ANTIBODY AND PHARMACEUTICAL USE THEREOF, AND ANTIBODY-DRUG CONJUGATE CONTAINING ANTI-DLL3 ANTIBODY” (Jiangsu Hengrui Pharmaceuticals Co., Ltd., priority 2021, published 2025).

T1: Human DLL3 full-length protein on cells (human, UniProt Q9NYJ7 27-618)
T1 construct: H1184 and DMS53 express DLL3 themselves; The cell line is named under assay; also called H1184 cells; DLL3/H82
T1 sequence: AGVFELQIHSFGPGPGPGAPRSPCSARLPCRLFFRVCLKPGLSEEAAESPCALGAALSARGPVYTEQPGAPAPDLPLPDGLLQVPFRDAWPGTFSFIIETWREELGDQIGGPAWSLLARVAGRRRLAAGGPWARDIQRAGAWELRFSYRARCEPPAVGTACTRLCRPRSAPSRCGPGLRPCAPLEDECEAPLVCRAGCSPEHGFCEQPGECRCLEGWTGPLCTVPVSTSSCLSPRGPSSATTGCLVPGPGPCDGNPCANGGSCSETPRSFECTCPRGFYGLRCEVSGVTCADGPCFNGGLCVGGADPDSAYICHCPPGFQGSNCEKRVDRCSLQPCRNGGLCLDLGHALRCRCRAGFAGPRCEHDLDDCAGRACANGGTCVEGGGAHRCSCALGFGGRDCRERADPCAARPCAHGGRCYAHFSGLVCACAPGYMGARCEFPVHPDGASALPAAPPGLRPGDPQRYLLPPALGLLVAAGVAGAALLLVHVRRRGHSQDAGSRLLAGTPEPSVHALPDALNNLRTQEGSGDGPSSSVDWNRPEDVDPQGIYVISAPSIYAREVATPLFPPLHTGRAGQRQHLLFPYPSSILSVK

T2: mouse DLL3 (KACTUS, DLL-MM103) (mouse, UniProt O88516 33-490, limits assumed)
T2 construct: bought antigen of the Biacore assay; construct not described
T2 sequence (looked up): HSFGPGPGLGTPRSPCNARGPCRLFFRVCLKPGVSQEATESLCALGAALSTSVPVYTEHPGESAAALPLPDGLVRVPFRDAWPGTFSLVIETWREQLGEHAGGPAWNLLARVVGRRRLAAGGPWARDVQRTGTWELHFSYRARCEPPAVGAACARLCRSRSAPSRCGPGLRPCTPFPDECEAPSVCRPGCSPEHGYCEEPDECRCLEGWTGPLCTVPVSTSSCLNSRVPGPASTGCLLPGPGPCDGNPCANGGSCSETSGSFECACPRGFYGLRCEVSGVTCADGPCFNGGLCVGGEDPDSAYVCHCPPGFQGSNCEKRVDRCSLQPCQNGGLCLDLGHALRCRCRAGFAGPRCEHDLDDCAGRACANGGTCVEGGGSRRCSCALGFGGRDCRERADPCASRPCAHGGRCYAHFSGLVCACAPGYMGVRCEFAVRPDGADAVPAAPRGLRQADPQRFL


Experiments:
[1] = molecular target: T1, Human DLL3 full-length protein on cells; test: FACS on DLL3/H82 cells
Procedure: Cells of the DLL3-expressing small cell lung cancer cell lines H1184 (ATCC, Cat. No. CRL-5858), DLL3/H82, cynoDLL3/CHO-s, and RatDLL3/CHO-s were suspended at 1×10^6/mL in FACS buffer (1% BSA+pH 7.4 PBS), and the cell suspensions were added to a 96-well round-bottom plate (Corning, 3795) at 100 μL/well. The plate was centrifuged at 300 g for 5 min, and the supernatant was removed. Different concentrations of test antibodies were added at 100 μL/well. The plate was incubated in the dark in a refrigerator at 4° C. for 1 h. After 3 washes by centrifugation at 300 g, working concentrations of APC anti-human IgG Fc (BioLegend, 410712) or PE F(ab′)2-goat anti-human IgG (invitrogen, H10104) were added. The plate was incubated in the dark in a refrigerator at 4° C. for 40 min. After 3 washes by centrifugation at 300 g, the geometric mean fluorescence intensity was measured on an Invitrogen flow cytometer, and the EC50 values of the antibodies in binding to DLL3-expressing cells were calculated.

[2] = molecular target: T2, mouse DLL3 (KACTUS, DLL-MM103); test: SPR (Biacore 8K), antibody captured on Protein A chip, 1:1 fit
Description: Test antibodies were affinity-captured with a Protein A biosensor chip (Cat. #29127556, Cytiva) for 18 seconds, and then the antigens human DLL3 (ACRO, DLL3-H52H4), cynomolgus monkey DLL3 (KACTUS, DLL-RM103), and mouse DLL3 (KACTUS, DLL-MM103) were allowed to flow over the surface of the chip for 180 seconds, followed by 600 seconds of dissociation. Reaction signals were detected in real time using a Biacore 8K (Cytiva) instrument to obtain association and dissociation curves. After the dissociation in each experimental cycle, the biosensor chip was washed and regenerated with a 10 mM glycine-hydrochloric acid solution (pH 1.5) (Cat. #BR-1003-54, Cytiva). A 1:1 model was fit to the data. The results are shown in Table 12-1, Table 12-2, and Table 12-3.

Binder	EC50 [1] [nM]	Emax [1]	Kd [2] [nM]
Hu100 (antibody, human IgG1, kappa, V domains shown, also called hAb100L1H1) VH: EVQLVESGGGLVKPGGSLRLSCAASGFTFSDSGMHWIRQAPGKGLEWVSYISSGSSTIHYADTVKGRFTISRDNAKNSLYLQMNSLRAEDTAVYYCASPLYYYGRSYNAVAYWGQGTTVTVSS VL: DIQMTQSPSSLSASVGDRVTITCHASQNINVWLSWYQQKPGKVPKLLIYKASDLHTGVPSRFSGSGSGTDFTLTISSLQPEDVATYYCQQGQSYPLTFGGGTKVEIKR	0.24	14300	–
Hu6 (antibody, human IgG1, kappa, V domains shown, also called hAb6L4H12) VH: EVQLVQSGSELKKPGASVKVSCKASGYTFTDYYMNWVRQAPGQGLEWMGIINPYSGVTIYNHKFKGRFALSVDKSSNTAYLQISSLKAEDTAVYYCARQDSLLDYAMDYWGQGTTVTVSS VL: DIQMTQSPSSLSASVGDRVTITCHASQGISGNMGWLQQKPGKAPKGLIYHGANLEDGVPSRFSGSGSGADYTLTISSLQPEDFADYYCVQYAQFPYTFGGGTKVEIKR	–	–	6.52
